# Experimental data from article PMC10858868, “TFIP11 promotes replication fork reversal to preserve genome stability”.
# T1: TFIP11 (UniProt Q9UBB9 1-837)
# T1 sequence: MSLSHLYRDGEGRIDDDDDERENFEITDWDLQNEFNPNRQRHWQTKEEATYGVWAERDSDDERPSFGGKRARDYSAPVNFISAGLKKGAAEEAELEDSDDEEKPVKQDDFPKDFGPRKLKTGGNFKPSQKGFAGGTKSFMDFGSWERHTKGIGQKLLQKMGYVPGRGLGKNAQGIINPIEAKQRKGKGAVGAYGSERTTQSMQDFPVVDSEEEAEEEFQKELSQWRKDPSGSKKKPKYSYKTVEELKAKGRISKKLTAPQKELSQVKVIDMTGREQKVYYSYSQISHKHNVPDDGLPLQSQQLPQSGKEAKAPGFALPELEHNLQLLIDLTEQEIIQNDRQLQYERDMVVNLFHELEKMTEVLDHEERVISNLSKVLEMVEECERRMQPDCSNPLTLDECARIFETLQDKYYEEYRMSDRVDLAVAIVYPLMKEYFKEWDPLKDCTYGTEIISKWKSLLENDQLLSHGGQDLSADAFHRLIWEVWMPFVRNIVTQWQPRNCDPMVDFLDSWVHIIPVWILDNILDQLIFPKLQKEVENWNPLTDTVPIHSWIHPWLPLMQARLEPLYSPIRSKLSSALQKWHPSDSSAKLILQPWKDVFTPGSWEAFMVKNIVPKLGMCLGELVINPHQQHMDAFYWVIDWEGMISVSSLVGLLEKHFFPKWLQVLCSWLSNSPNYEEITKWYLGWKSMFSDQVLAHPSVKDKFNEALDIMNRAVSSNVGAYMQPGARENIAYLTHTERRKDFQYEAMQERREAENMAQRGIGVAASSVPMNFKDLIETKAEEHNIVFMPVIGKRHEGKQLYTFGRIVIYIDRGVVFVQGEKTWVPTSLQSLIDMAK
# B1: dsDNA (oligo 1 + oligo 2) (dsDNA)
# DNA 1: GACGCTGCCGAATTCTACCAGTGCCTTGCTAGGACATCTTTGCCCACCTGCAGGTTCAC
# DNA 2: GTGAACCTGCAGGTGGGCAAAGATGTCCTAGCAAGGCACTGGTAGAATTCGGCAGCGTC
# B2: ssDNA (oligo 1) (ssDNA)
# DNA: GACGCTGCCGAATTCTACCAGTGCCTTGCTAGGACATCTTTGCCCACCTGCAGGTTCAC
# Biological target: T1, TFIP11
# Assay: EMSA; 15, 30 nM TFIP11; 0.5 nM DNA; at most about 6% bound in Source Data; EMSA: 10 mM MgCl2, 2.5% glycerol, 0.05% NP-40, 0.5 nM biotin-DNA, 20 min, room temperature (Pierce LightShift kit). Pull-down: 20 mM Tris-HCl pH 7.5, 120 mM NaCl, 0.1% Triton X-100, 2 mM CaCl2, 10 mM Mg(OAc)2, 1 mM DTT, 0.1 mg/mL BSA, 4 °C, 30 min
# Conditions: protein: recombinant, tags: His-SUMO (N-terminal)
binder,measurement,setting,value
B1,binding result,"label: 5'-biotin on oligo 1, blunt",no binding
B2,binding result,"label: 5'-biotin, single strand",no binding
